Measured values: the supplement of paper PMC7125110
± gives the standard error. This sample holds only a part of the variants without activity.

B1: glmS ribozyme (parent)
chain: AUAAAAGCGCCAGAACUACAGAAAUGUAGUUGACGAGGAGGAGGUUUAUCGAAUUUUCGGCGGAUGCCUCCAAA

Assays:
Settings in all cases: with glucosamine-6-phosphate
glucosamine-6-phosphate [1] = variants of: B1; experiment: self-cleavage kobs at 40 uM GlcN6P; higher = faster cleavage; RNA array
Procedure, shortened: (§1)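 Weighted Michaelis–Menten fits across concentrations supplied kcat and KM, based on kobs from one- or two-exponential decay fits to normalised per-tile medians. The data came from barcoded ribozyme variants transcribed in situ by E. coli RNA polymerase on sequenced MiSeq chips and tracked at 37 °C by a hybridised Cy3 probe. Glucosamine-6-phosphate (40 μM to 10 mM) in HEPES/KCl/Mg(OAc)2 buffer was flowed in.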

glucosamine-6-phosphate [2] = variants of: B1; experiment: self-cleavage kobs at 10000 uM GlcN6P; higher = faster cleavage; RNA array
Procedure, shortened: as §1

glucosamine-6-phosphate [3] = variants of: B1; experiment: self-cleavage kobs at 640 uM GlcN6P; higher = faster cleavage; RNA array
Procedure, shortened: as §1

glucosamine-6-phosphate [4] = variants of: B1; experiment: self-cleavage kobs at 160 uM GlcN6P; higher = faster cleavage; RNA array
Procedure, shortened: as §1

glucosamine-6-phosphate [5] = variants of: B1; experiment: self-cleavage kobs at 2500 uM GlcN6P; higher = faster cleavage; RNA array
Procedure, shortened: as §1

Variant | self-cleavage kobs at 40 uM GlcN6P (glucosamine-6-phosphate [1]) | self-cleavage kobs at 10000 uM GlcN6P (glucosamine-6-phosphate [2]) | self-cleavage kobs at 640 uM GlcN6P (glucosamine-6-phosphate [3]) | self-cleavage kobs at 160 uM GlcN6P (glucosamine-6-phosphate [4]) | self-cleavage kobs at 2500 uM GlcN6P (glucosamine-6-phosphate [5])
AUAAAACCCCCAGAACUACAGAAAUGUAGUCGACGAGGAAGAGGUUUAUCGAAUUUUCGGCGGAUGCCUCCAAA [G7C G9C U31C G40A] | < 1e-05 s⁻¹ | < 1e-05 s⁻¹ | – | – | –
AUAAAAGCGCGAGUACUACAGAAAUGUAGUUGACGAGGUGGAGGUUUAUCGAAUUUUCGGCGGAUGCCUCCAAA [C11G A14U A39U] | < 1e-05 s⁻¹ | – | – | – | –
AUAAAAGCGCCAGAACUACAGAAAUGUACUUGACGAGGAGGAGGUUUAUCUAAUGUUCGGCGGAUGCCUCCAAA [G29C G51U U55G] | < 1e-05 s⁻¹ | < 1e-05 s⁻¹ | – | – | –
AUAAAAGCGACAGAACUACAGAAAUGUAGUUGUCGAGGAGGAGGUUUAUCGAAUUUUCGGCGGAUGCCUCCAAA [C10A A33U] | < 1e-05 s⁻¹ | < 1e-05 s⁻¹ | – | – | –
AUAAAAGCGACAGAACUACAGAAAUGUAGGUGACGAGGUGGAGGUUUAUCGAAUUUUCGGCGGAUGACUCCAAA [C10A U30G A39U C67A] | < 1e-05 s⁻¹ | – | – | – | –
AUAAAAGCGGCAGAACUACAGAAAUGUAGUUGACGAGGAGGAGGUUUAUCCAAUUUUAGGCGGAUGCCUCCAAA [C10G G51C C58A] | < 1e-05 s⁻¹ | < 1e-05 s⁻¹ | < 1e-05 s⁻¹ | – | –
AUAAAAGCGCCAGAACUACAGAAAUGUAGUUGGCGAGGAGGAGGUUUAUCGAAUUUUAGGCGGAUGCCUCCAAA [A33G C58A] | < 1e-05 s⁻¹ | < 1e-05 s⁻¹ | – | – | –
AUAAAAGCGCCACAACUACAGAAAUGUAGUUGACGAGGAGGAGGUUCAUCGAAUUUUCGGCGGAUGCCUCCAAA [G13C U47C] | < 1e-05 s⁻¹ | – | – | < 1e-05 s⁻¹ | –
AUAAAAGCGCCUGAACUACAGAAAUGUAGUUGACGAGGAGGAGGGAUAUCGAAUUUUCGGCGGAUGCCUCCAAA [A12U U45G U46A] | 0.000262 ± 8.5e-05 s⁻¹ | – | – | – | 0.00886 ± 0.0031 s⁻¹
AUAAAAGGGCCAGAACUACAGAAAUGUAGUUGACGAGUAGGAGGUUUAUCGAAUUUUCGUCGGAUGCCUCCAAA [C8G G38U G60U] | < 1e-05 s⁻¹ | – | – | – | –
AUAAAAGCGCCAGAGCUACAGAAAUGUAGUUGACGAGGAGGAGGUUUAUGGAAUUUUCGGCGGAUGCUUCCAAA [A15G C50G C68U] | 0.000179 ± 3.4e-05 s⁻¹ | 0.000154 ± 3.1e-05 s⁻¹ | 0.000492 ± 0.00016 s⁻¹ | – | 0.000371 ± 0.00011 s⁻¹
AUAAAAGCGCCAGAACUACAGAAAUGUAGUUCACGAGGAGGAGGUUUAUCGCAUUUUCGGCGAAUGCCUCCAAA [G32C A52C G63A] | < 1e-05 s⁻¹ | – | – | – | –
AUAAAAGCGCCAGUACUACAGAAAUGUAGUUGACGAGGAGGAGGUUUAUGGAAUUUUCGGCGGAUGUCUCCAAA [A14U C50G C67U] | 0.00027 ± 6.3e-05 s⁻¹ | 0.000112 ± 1.9e-05 s⁻¹ | 0.000192 ± 5.6e-05 s⁻¹ | 0.000222 ± 7e-05 s⁻¹ | 0.000193 ± 5.8e-05 s⁻¹
AUAAAAGCGCCAGAACUACAGAAAUGUAGUUGACGAGGAGGAGAUUUAUCGAAUUUUAGGCGGAUGCCUUCAAA [G44A C58A C70U] | < 1e-05 s⁻¹ | – | < 1e-05 s⁻¹ | < 1e-05 s⁻¹ | –
AUAAAAGCGCCACAACUACAGAAAUGUAGUUGUCGAGGGGGAGGUUCAUCGAAUUUUCGGUGGAUGCCUCCAAA [G13C A33U A39G U47C C61U] | < 1e-05 s⁻¹ | – | – | – | –
AUAAAAGCGCCAGAACUACAGAAAUGUAGUUGACGAGGACGAGGUUUAUCGAAUUUUCGGGGGAUGCCUCCAAA [G40C C61G] | < 1e-05 s⁻¹ | < 1e-05 s⁻¹ | < 1e-05 s⁻¹ | < 1e-05 s⁻¹ | < 1e-05 s⁻¹
